# B1: BT1715 (Bacteroides thetaiotaomicron VPI-5482) (protein)
# chain: MNYAFVVQARLGSTRLPGKILKPFYGNQSILDLMVHKLSAISNIPVIIATTNSVINEPIEKKALALGVKCFRGEENDVLKRFIDVAEYFDIQGIFRICSDNPFLDVHAARQLVEIAMKSCNDYISFDIDGTPSIKTHFGFWGEFVTLDALKRVIGFTDDLLYREHVTNYIYSHPELFNIQWISGSPVVSKHHNIRLTIDTLEDFSVAQRIYRDLQEKRVEISIEVIVDYVRRHAEYIQLMKQQIKKNSK
# Substrate: Nc1ccn([C@@H]2O[C@H](COP(=O)(O)OP(=O)(O)OP(=O)(O)O)[C@@H](O)[C@H]2O)c(=O)n1
# Experiment: purified protein
# Type: biochemical, Bacteroides thetaiotaomicron
# Conditions: 6 mM KDN, 10 mM MgCl2, Tris pH 7.5, 25 °C
protein,measurement,value
B1,Km,510 ± 30 µM
same,kcat,0.017 ± 0.0005 s⁻¹

# Reference: publication PMC4425688
